Measured values published in patent publication US7241873B2, “Recombinant anti-osteopontin antibody and use thereof” (Juridical Foundation the Chemo-sero-therapeutic Research …, priority 2001, dated 2007).
Where a chain is given by its changes, count along the chain named. No end group written: not given here. *: point of attachment. Biotin = O=C1N[C@H]2[C@H](CS[C@H]2CCCCC(=O)*)N1

Tests used:
[1] = molecular target: T1, biotinylated partial peptide GRGDSVVYGLR of human osteopontin (human); test: SPR BIACORE-2000, biotinylated peptide on sensor chip SA, antibody as analyte, global fitting 1:1 (Langmuir)
T1 construct: Captured on a BIACORE sensor chip SA (23 RU)
T1 peptide: Biotin-GRGDSVVYGLR
Procedure: The KD value of the chimera 2K1 antibody was assayed in the following manner. First, a partial peptide GRGDSV-VYGLR (residues 7–17 of SEQ ID NO: 1) of the human osteopontin was biotinylated with a biotinylation kit (Dojindo Corporate). A sensor chip SA was set on BIA-CORE-2000, to bind 23 RU of a ligand (Bin-GRGDSV-VYGLR)(residues 7–17 of SEQ ID NO: 1). […] The data of these sensor grams were analyzed by global fitting at 1:1 (Langmuir) binding by a BIACORE analysis software BIA Evaluation Version 3.0. FIG. 6a is a sensor gram at various concentrations of the murine 2K1 antibody. FIG. 6b is a sensor gram at various concentrations of the chimera 2K1 antibody.
As the results of the measurement, the KD value of the murine 2K1 antibody was 1.2 ×10^-10 M, while the KD value of the chimera 2K1 antibody was 9.2 ×10^-11 M. No reduction of the affinity of the chimera 2K1 antibody was observed due to the chimera preparation of the murine 2K1 antibody.

CHO/OPN-a = molecular target: T2, CHO/OPN-a (human, UniProt P10451 17-314, sugar chain-bound type (glycosylated)); test: Western blotting
T2 construct: mature; also called full-length OPN

GST-OPN-c = molecular target: T3, GST-OPN-c (human, UniProt P08515 1-218 = GST; P10451 1-287); test: Western blotting
T3 construct: Isoform c of human osteopontin; made in E. coli; also called GST fusion protein of human osteopontin-c; not shown: vector-encoded junction between GST and OPN not described

[2] = molecular target: thrombin-cleaved OPN (human) (UniProt P10451); test: cell-based or functional assay
[3] = molecular target: T4, BSA-crosslinked osteopontin peptide BSA-CVDTYDGRGDSVVYGLRS (human, also: crosslinked to BSA, linkage chemistry not given here); test: ELISA on a plate with BSA-CVDTYDGRGDSVVYGLRS, detection with protein A-HRP and TMB, OD450
T4 construct: Peptide carries an added N-terminal cysteine; immobilized on a microtiter plate as BSA conjugate; also called Peptide 1
T4 peptide: {BSA}-CVDTYDGRGDSVVYGLRS

bovine serum albumin = molecular target: T5, bovine serum albumin (bovine, UniProt P02769 25-607); test: ELISA on a plate with BSA alone, detection with protein A-HRP and TMB, OD450
T5 construct: also called BSA

[4] = molecular target: BSA-crosslinked osteopontin peptide (BSA-CVDTYDGRGDSVVYGLRS) (Homo sapiens, UniProt P10451); test: ELISA binding to osteopontin peptide
Text: Based on the concentrations of the humanized 2K1 antibody and the chimera 2K1 antibody as determined in Example 13, the binding activities of the humanized 2K1 antibody and the chimera 2K1 antibody with osteopontin peptide (CVDTYDGRGDSVVYGLRS) (SEQ ID NO: 1) were compared with reference to the ELISA of Kon et al. (Journal of Cellular […]: 420–432 (2002)).
Dilution series of the humanized 2K1 antibody and the chimera 2K1 antibody reacted on a microtiter plate with BSA-crosslinked osteopontin peptide (BSA-CVDTYDGRGDSVVYGLRS)(SEQ ID NO: 1) immobilized thereon. Then, the antibodies bound to BSA-CVDTYDGRGDSVVYGLRS (SEQ ID NO: 1) reacted with protein A-HRP, and finally with TMB (Dojindo Corporate), to measure the absorbance at a wavelength of 450 nm.
Additionally, reaction on a plate with only BSA immobilized thereon as a negative control was also measured in the same manner.
As a negative control, additionally, the binding activity of the chimera 2K1 antibody to BSA (open circle) and the binding activity of the humanized 2K1 antibody to BSA (open square) are also shown.

Sequence of thrombin-cleaved OPN (human) (P10451 17-168 limits assumed, form in doubt, chain 1 of 2): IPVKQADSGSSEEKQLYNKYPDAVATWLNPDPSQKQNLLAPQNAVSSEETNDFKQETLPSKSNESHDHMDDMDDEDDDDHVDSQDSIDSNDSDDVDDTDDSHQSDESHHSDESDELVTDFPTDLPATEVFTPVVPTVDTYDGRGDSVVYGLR
Sequence of thrombin-cleaved OPN (human) (P10451 169-314 limits assumed, form in doubt, chain 2 of 2): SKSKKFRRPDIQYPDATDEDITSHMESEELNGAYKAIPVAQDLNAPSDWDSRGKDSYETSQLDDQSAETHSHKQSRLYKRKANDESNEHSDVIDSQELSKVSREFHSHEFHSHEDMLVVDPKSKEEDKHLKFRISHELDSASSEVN
T5 sequence (P02769 25-607 limits assumed): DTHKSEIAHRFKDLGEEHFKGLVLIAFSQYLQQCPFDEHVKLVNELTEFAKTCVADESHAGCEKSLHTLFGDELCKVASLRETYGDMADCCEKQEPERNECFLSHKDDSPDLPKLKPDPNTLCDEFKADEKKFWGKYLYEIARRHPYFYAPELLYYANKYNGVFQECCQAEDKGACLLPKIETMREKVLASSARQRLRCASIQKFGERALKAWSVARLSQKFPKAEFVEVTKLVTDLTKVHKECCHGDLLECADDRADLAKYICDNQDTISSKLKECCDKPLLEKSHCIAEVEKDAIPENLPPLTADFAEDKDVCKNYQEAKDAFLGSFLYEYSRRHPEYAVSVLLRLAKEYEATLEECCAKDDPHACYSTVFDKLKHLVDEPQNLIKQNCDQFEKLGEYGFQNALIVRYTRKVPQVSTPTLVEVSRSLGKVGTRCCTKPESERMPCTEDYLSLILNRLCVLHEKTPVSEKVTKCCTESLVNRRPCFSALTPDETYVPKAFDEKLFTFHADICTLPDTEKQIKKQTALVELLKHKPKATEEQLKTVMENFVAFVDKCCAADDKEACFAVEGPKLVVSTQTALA
T3 sequence (P08515 1-218, tags or fused parts left off): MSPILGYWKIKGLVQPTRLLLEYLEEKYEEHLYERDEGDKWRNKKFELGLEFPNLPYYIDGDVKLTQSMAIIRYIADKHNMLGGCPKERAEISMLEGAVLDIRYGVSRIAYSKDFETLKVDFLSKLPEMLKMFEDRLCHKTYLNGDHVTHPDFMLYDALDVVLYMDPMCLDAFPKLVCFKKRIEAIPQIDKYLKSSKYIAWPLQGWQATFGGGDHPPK
T2 sequence (P10451 17-314): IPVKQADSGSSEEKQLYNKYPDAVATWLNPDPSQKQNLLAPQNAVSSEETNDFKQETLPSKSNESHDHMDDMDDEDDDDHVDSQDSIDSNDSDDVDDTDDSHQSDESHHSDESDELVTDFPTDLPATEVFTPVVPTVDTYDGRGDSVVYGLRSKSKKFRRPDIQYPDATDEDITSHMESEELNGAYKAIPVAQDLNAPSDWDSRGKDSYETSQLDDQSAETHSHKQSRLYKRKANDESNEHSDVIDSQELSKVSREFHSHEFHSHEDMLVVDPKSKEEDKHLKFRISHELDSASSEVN

B1: murine monoclonal antibody 2K1 (antibody, V domains shown)
VH: QVQLQQSGAELVRPGASVKLSCKALGYTFTDYEMHWVKQTPVHGLEWIGAIHPGRGGTAYNQKFKGKATLTADKSSSTAYMELSSLTSEDSAVYYCTRITGYFDVWGAGTTVTVSS
VL: DVLMTQTPLSLPVSLGDQASISCRSSQSIVHSNGNTYLEWYLQKPGQSPKLLIYKVSNRFSGVPDRFSGSGSGTDFTLKISRVEAEDLGVYYCFQGSHVPLTFGAGTKLELKR
notes: also called murine 2K1 antibody; murine antibody 2K1
For B1, the Kd [1] was 120 pM, the binding result (CHO/OPN-a) was “binds” and the binding result (GST-OPN-c) was “binds”. The Mean migrating cell counts per 1 mm^3; monocyte; thrombin-cleaved OPN 10 µg/mL, murine 2K1 antibody 0.4 µg/mL (cells per 1 mm^3) [2] was 258, the Mean migrating cell counts per 1 mm^3; monocyte; thrombin-cleaved OPN 10 µg/mL, murine 2K1 antibody 2 µg/mL (cells per 1 mm^3) [2] was 257 and the Mean migrating cell counts per 1 mm^3; monocyte; thrombin-cleaved OPN 10 µg/mL, murine 2K1 antibody 10 µg/mL (cells per 1 mm^3) [2] was 160. For the same molecule, the Mean migrating cell counts per 1 mm^3; monocyte; thrombin-cleaved OPN 10 µg/mL, murine 2K1 antibody 50 µg/mL (cells per 1 mm^3) [2] was 75, the Mean migrating cell counts per 1 mm^3; neutrophil; thrombin-cleaved OPN 10 µg/mL, murine 2K1 antibody 0.4 µg/mL (cells per 1 mm^3) [2] was 567 and the Mean migrating cell counts per 1 mm^3; neutrophil; thrombin-cleaved OPN 10 µg/mL, murine 2K1 antibody 2 µg/mL (cells per 1 mm^3) [2] was 550. For the same molecule, the Mean migrating cell counts per 1 mm^3; neutrophil; thrombin-cleaved OPN 10 µg/mL, murine 2K1 antibody 10 µg/mL (cells per 1 mm^3) [2] was 450 and the Mean migrating cell counts per 1 mm^3; neutrophil; thrombin-cleaved OPN 10 µg/mL, murine 2K1 antibody 50 µg/mL (cells per 1 mm^3) [2] was 427.

B2: mouse-human chimera 2K1 antibody (antibody, V domains shown)
VH: B1 VH
VL: B1 VL
notes: Expressed in CHO-DG44; also called C2K1 antibody; 2K1 chimera antibody
For B2, the Kd [1] was 92 pM, the binding result [3] was “binds” and the binding result (bovine serum albumin) was “no binding (tested: 50 ng/ml)”.

B3: humanized 2K1 antibody (antibody, V domains shown)
VH: QVQLVQSGAEVKKPGSSVKVSCKASGGTFSDYEMHWVRQAPGQGLEWMGAIHPGRGGTAYNQKFKGRVTITADKSTSTAYMELSSLRSEDTAVYYCARITGYFDVWGQGTTVTVSS
VL: B1 VL with L3V, T7S, S14T, D17Q, Q18P, K50Q, L88V, A105Q, L111I
notes: Human Igγ1 / Igκ constant regions (vectors AG-γ1 and AG-κ); Tested as CHO-DG44 culture supernatant; also called R2K1 antibody
B3: binds [3]; no binding (tested: 50 ng/ml) (bovine serum albumin).

B4: humanized 2K1 antibody: humanized antibody with CDRs of murine 2K1; VH SEQ ID NO: 28, VL SEQ ID NO: 30, human Igγ1/Igκ (antibody, V domains shown)
VH: MDWTWRVFCLLAVAPGAHSQVQLVQSGAEVKKPGSSVKVSCKASGGTFSDYEMHWVRQAPGQGLEWMGAIHPGRGGTAYNQKFKGRVTITADKSTSTAYMELSSLRSEDTAVYYCARITGYFDVWGQGTTVTVSS
VL: MGWSCIILFLVATATGVHSDVVMTQSPLSLPVTLGQPASISCRSSQSIVHSNGNTYLEWYLQKPGQSPQLLIYKVSNRFSGVPDRFSGSGSGTDFTLKISRVEAEDVGVYYCFQGSHVPLTFGQGTKLEIKR
modifications: human IgG1/kappa constant regions
In the case of B4, the “antigen binding activity compared with the original murine 2K1 antibody” value [4] is reported as “identical to that of the original murine 2K1 antibody”, the “binding activity to BSA-CVDTYDGRGDSVVYGLRS” value ([4]; ELISA, absorbance 450 nm, FIG. 13) is reported as “had binding activities” and the “binding activity to BSA (negative control plate)” value ([4]; ELISA, plate with only BSA immobilized) is reported as “not to BSA”. The “comparison of binding activities of both antibodies to BSA-CVDTYDGRGDSVVYGLRS” value ([4]; humanized versus chimera 2K1 antibody) was “at the same level”.
